# Patent US20240182575A1 (Ablynx, published 2024)
# Changes are numbered by the printed parent chain.
# T1: cynomolgus monkey CTLA4 on stably transfected CHO-K1 cells (human CTLA4 cDNA with S13N, I17T and L105M) (human backbone with cynomolgus monkey …, UniProt P16410 36-223)
# T1 chain: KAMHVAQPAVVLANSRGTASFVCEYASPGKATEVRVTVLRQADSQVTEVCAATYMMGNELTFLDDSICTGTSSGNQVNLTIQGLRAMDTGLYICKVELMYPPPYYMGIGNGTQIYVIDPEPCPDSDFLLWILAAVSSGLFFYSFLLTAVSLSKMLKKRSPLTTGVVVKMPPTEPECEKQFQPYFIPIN
# T2: HuCD86-HuIgG1 (fusion protein of the extracellular part of human CD86 and human Fc gamma 1, R&D Systems Cat … (human, UniProt P42081 24-247))
# T2 construct: extracellular domain; bought; also called CD86-IgG1; CD86-Ig; not shown: human Fc gamma 1
# T2 sequence (looked up): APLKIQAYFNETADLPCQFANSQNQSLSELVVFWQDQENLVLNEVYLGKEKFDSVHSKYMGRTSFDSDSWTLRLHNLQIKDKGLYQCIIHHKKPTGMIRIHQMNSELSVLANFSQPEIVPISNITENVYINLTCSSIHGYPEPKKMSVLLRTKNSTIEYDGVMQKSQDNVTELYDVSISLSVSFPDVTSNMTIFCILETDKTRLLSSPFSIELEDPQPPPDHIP
# T3: HuCD80-HuIgG1 (fusion protein of the extracellular part of human CD80 and human Fc gamma 1, R&D Systems Cat … (human, UniProt P33681 35-242))
# T3 construct: extracellular domain; bought, produced in NS0 cells; also called CD80-IgG1; CD80-Ig; not shown: human Fc gamma 1
# T3 sequence (looked up): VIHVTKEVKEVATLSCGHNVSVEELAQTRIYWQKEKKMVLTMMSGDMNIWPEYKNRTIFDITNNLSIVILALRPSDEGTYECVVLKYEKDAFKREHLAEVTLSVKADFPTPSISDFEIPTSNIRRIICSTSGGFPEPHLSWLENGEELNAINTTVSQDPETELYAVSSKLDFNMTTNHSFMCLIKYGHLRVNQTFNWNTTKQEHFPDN
# B1: 4CTLAPMP03A6 (VHH)
# VHH: EVQLVESGGGLVQPGGSLRLSCAAPGRTFSNYAMGWFRQAPGKGREFVADIRWSDGRTYYADSVKGRFTVSRDNAKNTVYLQMNSLKPEDTAVYYCAAQGGVLSGWDYWGQGTQVTVSS
# notes: short label tied to the entry by the clone code only; not shown: C-terminal c-myc tag and His6 tag
# B2: 4CTLAPMP10G5 (VHH)
# VHH: EVQLVESGGGLVQAGGSLRLSCAASGGTFSRYIMAWFRQAPGKEREFVAVIDGSGYSTDYAGSVKGRFTIARDNTKNTAYLQMNSLKPEDTALYFCGAGRQYSTGPYWYDYWGQGTQVTVSS
# notes: as for B1
# B3: 4CTLAPMP11E3 (VHH)
# VHH: EVQLVESGGGLVEPGGSLRLSCAASGSISSYNVMGWYRQAPGQQRDLVAHIASNGEIMYADSAKGRFTISRDNAKKTVYLQMNSLKPEDTAVYYCKLWVLGNDYWGQGTQVTVSS
# notes: also called 11E3 WT; not shown: C-terminal c-myc tag and His6 tag
# B4: 4CTLAPMP12H2 (VHH)
# VHH: B3 VHH with G108R
# notes: as for B1
# B5: 4CTLAPMP02C11 (VHH)
# VHH: EVQLVESGGGLVQPGGSLRLSCAASGNIFTRHIMGWYRQAPGKQRELVASITPGDNINYADSVKGRFTISRDGAKNTVYLQMNSLKPEDTAVYYCNAHGSILLDRTNYWGQGTQVTVSS
# notes: as for B1
# B6: 4CTLAPMP08E5 (VHH)
# VHH: B5 VHH with G26R, N27D, H32N, E46D, D55G, I57M, N58Y, T106S
# notes: label 8E5.4 tied to 4CTLAPMP08E5 by the clone code only; the suffix .4 is not explained; also called 8E5.4; not shown: C-terminal c-myc tag and His6 tag
# B7: 4CTLAPMP13B2 (VHH)
# VHH: EVQLVESGGGLVQPGGSLRLSCVASGIHFAISTINWYRQAPGKQRESVAAITGTSVTGYADSVKGRFTLSRDNAKNTVYLQMDNLKPEDTAVYYCNVWSGRDYWGQGTQVTVSS
# notes: as for B1
# B8: 4CTLAPMP02A5 (VHH)
# VHH: EVQLVESGGGLVQAGGSLRLSCAASGRTNSTTLMGWSRRAPGKEREFVAAISGSGTLTSYADSVKGRFAISRDNAKNTVYLQMNSLKPEDTAIYYCAAGLTSWALIPSRTLTTWGQGTQVTVSS
# notes: as for B1
# B9: 4CTLAPMP17E3 (VHH)
# VHH: EVQLMESGGGLVTAGGSLRLSCAASGGTFGHYAMAWFRRPPGNEREFVAGIGWTYTTFYADSVKGRFAISRDNAENTVYLQMNNLKPDDTAVYYCAAAELKGRNLRVPDYEHWGQGTQVTVSS
# notes: as for B1
# B10: 4CTLAPMP03C4 (VHH)
# VHH: EVQLVESGGGLVQAGGSLRLSCAASGGTFSFYGMGWFRQAPGKEREFVADIRTSAGRTYYADSVKGRFTISRDNAKNTVYLQMNSLKPEDTAVYYCAAEMSGISGWDYWGQGTQVTVSS
# notes: as for B1
# B11: 4CTLAPMP06C10 (VHH)
# VHH: EVQLVESGGGLVQAGGSLRLSCAASGRTFSNYTIAYFRQAPGREREFAAAISPHGTLRSFADSVKDRFTISRDNAKNTVWLQMNSLKLEDTAVYYCAADPSGWGLRQHSENEYPYWGLGTQVTVSS
# notes: as for B1
# B12: CD8086PMP2E6 (VHH)
# VHH: EVQLVESGGGLVQAGGSLRLSCAASGSIFSIYDMGWYRQAPGKQRVLVATITSGGSTNYADSVKGRFTISRDDAKNTVYLQMNSLKPEDTAVYYCNAIAHEEGVYRWDFWGQGTQVTVSS
# notes: not shown: C-terminal c-myc tag and His6 tag
# B13: CD8086PMP2F5 (VHH)
# VHH: B12 VHH with E6K, V46E, T50A, D73N, H100Y
# notes: as for B12
# B14: CD8086PMP2B10 (VHH)
# VHH: EVQLVESGGGLVQAGGSLRLSCTGSQISFSDNTMNWYRQVPGKQRELVASLSIFGATGYADSVKGRFTISRDIAGNTVYLQMNDLKIEDTAVYYCKLGPVRRSRLEYWGQGTQVTVSS
# notes: as for B12
# B15: CD8086PMP1B2 (VHH)
# VHH: EVQLVESGGGLVQAGGSLRLSCAASGRSFSSYVMGWFRQAPGKEREFVAAIIGRDIGTYYADSVKGRFTISRDNAKTTVYLQMNALKPEDTAVYYCAADSRSRLSGIRSAYDYWGQGTVTVSS
# notes: as for B12
# B16: CD8086PMP1A3 (VHH)
# VHH: EVQLVESGGGLVQAGGSLRLSCAASGPTSSSYSMGWFRQAPGKEREFVAAINWSHGVTYYADSVKGRFTISRDIAKNTVYLQMNSLKPEDTAVYYCAANEYGLGSSIYAYKHWGQGTQVTVSS
# notes: as for B12
# B17: CD8086PMP1D1 (VHH)
# VHH: EVQLVESGGGLVQAGGSLRLSCAASGRTFSSKAMGWFRQAPGKERDFVAAITWSGGSTYYADHVKGRFTISRDNAKNTVYLQMNSLKPEDTAVYYCATNPYGLGQVGYDYWGQGTQVTVSS
# notes: as for B12
# B18: CD8086PMP2A7 (VHH)
# VHH: B17 VHH
# notes: as for B12
# Target: T4, HuCTLA4-HuIgG1 (fusion protein of the extracellular part of human CD152 and human Fc gamma 1, CTLA4-Ig) (human, UniProt P16410 36-161)
# T4 construct: extracellular domain; also called CTLA4-hFc; CTLA4-Fc; not shown: human Fc gamma 1
# Assay: SPR, Biacore T100, CTLA4-Ig amine-coupled
# Method: Affinity constants (Kd) of individual purified Nanobody clones were determined by surface plasmon resonance on a Biacore T100 instrument. […] Remaining reactive groups were inactivated using ethanolamine. […] Each sample was injected for 2 min at a flow rate of 45 μl/min to allow for binding to chip-bound antigen. Next, binding buffer without Nanobody was sent over the chip at the same flow rate to allow for dissociation of bound Nanobody. After 2 min, remaining bound analyte was removed by injecting regeneration solution (10 mM Glycine/HCl pH 1.5). Binding curves obtained at different concentrations of Nanobody were used to calculate KD values. For some clones, only a single undetermined concentrations of Nanobody was injected.
# T4 sequence (P16410 36-161 limits assumed): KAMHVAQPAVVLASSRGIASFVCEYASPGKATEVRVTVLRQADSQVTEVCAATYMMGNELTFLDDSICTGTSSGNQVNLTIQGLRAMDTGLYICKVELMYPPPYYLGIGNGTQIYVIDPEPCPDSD
koff,Kd,kon,Binder
0.0018 s⁻¹,,,B1
0.00618 s⁻¹,,,B2
0.00496 s⁻¹,10 nM,742000 M⁻¹ s⁻¹,B3
0.00258 s⁻¹,7.52 nM,349000 M⁻¹ s⁻¹,B4
0.0235 s⁻¹,,,B5
0.00386 s⁻¹,,,B6
0.0067 s⁻¹,,,B7
0.0053 s⁻¹,,,B8
0.00489 s⁻¹,,,B9
0.0205 s⁻¹,,,B10
0.00279 s⁻¹,,,B11

# Target: T5, human CTLA4 (Y201 mutated to valine) on stably transfected CHO-K1 cells (human, UniProt P16410 36-223)
# T5 construct: whole, on cells; the mutation of the intracellular position Y201 keeps the protein on the membrane; also called human CTLA4 overexpressing CHO cells; human CTLA4 transfectant
# Assay: FACS, direct binding titration on human CTLA4 CHO cells (head prints IC50)
# Method: Binding of putative CTLA4 reactive Nanobodies clones was detected using unlabeled anti-c-myc tag mouse monoclonal antibody 9E10, followed by a phycoerythrin conjugated F(ab′)2 derived from goat-anti-mouse IgG (human and bovine crossabsorbed), and read on a BD FACSarray instrument. Dead cells were excluded from the analysis by gating out TOPRO3 vital dye positive scoring cells. Binding of the Nanobodies to cells was evaluated in BD FACSarray control software as PE channel histograms.
# T5 sequence (P16410 other isoform, or with tags, fused parts or gaps, change not shown): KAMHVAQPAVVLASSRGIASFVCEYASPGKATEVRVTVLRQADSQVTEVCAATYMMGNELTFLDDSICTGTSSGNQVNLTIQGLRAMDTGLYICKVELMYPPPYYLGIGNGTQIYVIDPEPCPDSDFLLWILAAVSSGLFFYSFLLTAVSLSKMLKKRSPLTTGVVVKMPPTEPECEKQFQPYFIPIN
row,IC50,Binder
1,4.65 nM,B2
2,4.91 nM,B3
3,5.82 nM,B4
4,3.6 nM,B7
5,5.72 nM,B8
6,11.2 nM,B9
7,8.06 nM,B10
8,5.73 nM,B11

# Target: T1, cynomolgus monkey CTLA4 on stably …
# Assay: FACS, direct binding titration on cyno CTLA4 CHO cells (head prints IC50)
row,IC50,Binder
1,4.5 nM,B3
2,5.65 nM,B4
3,7.74 nM,B8
4,6.73 nM,B10
5,5.47 nM,B11

# Target: T2, HuCD86-HuIgG1 (fusion protein of the …)
# Assay: ELISA, periplasmic extract on coated antigen, anti-myc detection
# Excerpt: (§1) To this end, 3 independent ELISA assays were set up. In these ELISAs, either HuCD80 or HuCD86 fusion proteins or human IgG1 were coated on ELISA plates which were washed and then blocked using Marvel skimmed milk powder (Premier Brands UK Ltd., Wirral, Merseyside, UK). […] Four aliquots of periplasmic extract of individual clones prepared as described in Example 4 were allowed to bind in all four types of ELISA plates. Binding of Nanobody to immobilized antigen was detected using mouse anti-c-myc tag monoclonal antibody as a secundary, followed by a goat-anti-mouse (human and bovine serum protein pre-absorbed) HRP conjugate for detection (for detailed protocol, see the prior art and prior applications filed by applicant).
row,OD,Binder
1,0.538 OD,B12
2,0.774 OD,B13
3,1.73 OD,B14
4,0.038 OD,B15
5,0.053 OD,B16
6,0.043 OD,B17
7,0.042 OD,B18

# Target: T3, HuCD80-HuIgG1 (fusion protein of the …)
# Assay: as above
# Excerpt: as §1
row,OD,Binder
1,1.52 OD,B12
2,1.65 OD,B13
3,1.99 OD,B15
4,1.92 OD,B16
5,1.89 OD,B17
6,1.71 OD,B18

# Target: T6, Human IgG1, purified from a human plasma (Sigma-Aldrich Cat #I-5154) (human)
# T6 construct: also called HuIgG1
# Assay: as above
# Excerpt: as §1
row,OD,Binder
1,0.049 OD,B12
2,0.056 OD,B13
3,0.044 OD,B14
4,0.046 OD,B15
5,0.052 OD,B16
6,0.046 OD,B17
7,0.043 OD,B18

# Target: T2, HuCD86-HuIgG1 (fusion protein of the …)
# Assay: SPR, Biacore 3000, antigen amine-coupled
# Method: (§2) Affinity constants (Kd) of individual purified Nanobody clones were determined by surface plasmon resonance on a Biacore 3000 instrument. […] Remaining reactive groups were inactivated using ethanolamine. Nanobody binding was assessed at 1 and 0.1 microM. Each sample was injected for 4 min at a flow rate of 45 μl/min to allow for binding to chip-bound antigen. Next, binding buffer without Nanobody was sent over the chip at the same flow rate to allow for dissociation of bound Nanobody. After 2 min, remaining bound analyte was removed by injecting regeneration solution (50 mM NaOH or Glycine/HCl pH 1.5). Binding curves obtained at different concentrations of Nanobody were used to calculate Kd values.
Kd,koff,kon,binding result,Binder
4 nM,0.00097 s⁻¹,250000 M⁻¹ s⁻¹,,B14
,,,no binding (tested: 1 and 0.1 microM),B15

# Target: T3, HuCD80-HuIgG1 (fusion protein of the …)
# Assay: SPR, Biacore 3000, antigen amine-coupled
# Method: as §2
Kd,koff,kon,Binder
0.13 nM,5.9e-05 s⁻¹,440000 M⁻¹ s⁻¹,B15
